Test results: patent US20110201077

System: recombinant streptokinase produced with the pET21b expression construct (double-mutant, plasmin-resistant, polyhistidine-tagged)

recombinant plasmin
streptokinase proteolysis followed by Western blot, 1:1 mole ratio (data not shown): a very stable streptokinase fragment was generated, even at t=18 hours into the reaction

recombinant plasminogen
conversion of recombinant plasminogen to recombinant plasmin, time course on reducing SDS-PAGE, 100:1 mole ratio plasminogen:streptokinase: At t=18 hours into the reaction, nearly all of the recombinant plasminogen had been converted to recombinant plasmin
